Experiments:
[1] = target: T1, substrate EVNLAVEFWHDR
T1 chain: EVNLAVEFWHDR

[2] = target: T2, substrate EEISEVNLAAEF
T2 chain: EEISEVNLAAEF

[3] = target: T3, substrate RWHHEVNLAAEF
T3 chain: RWHHEVNLAAEF

B1: memapsin 2 (spontaneously activated promemapsin 2-T1; amino acids 43-456 and 45-456 of SEQ ID NO: 8) (protein)
chain: LRLPRETDEEPEEPGRRGSFVEMVDNLRGKSGQGYYVEMTVGSPPQTLNILVDTGSSNFAVGAAPHPFLHRYYQRQLSSTYRDLRKGVYVPYTQGKWEGELGTDLVSIPHGPNVTVRANIAAITESDKFFINGSNWEGILGLAYAEIARPDDSLEPFFDSLVKQTHVPNLFSLQLCGAGFPLNQSEVLASVGGSMIIGGIDHSLYTGSLWYTPIRREWYYEVIIVRVEINGQDLKMDCKEYNYDKSIVDSGTTNLRLPKKVFEAAVKSIKAASSTEKFPDGFWLGEQLVCWQAGTTPWNIFPVISLYLMGEVTNQSFRITILPQQYLRPVEDVATSQDDCYKFAISQSSTGTVMGAVIMEGFYVVFDRARKRIGFAVSACHVHDEFRTAAVEGPFVTLDMEDCGYNIPQTDEST
With B1 the Km [1] was “Km of 83±8.9 mM”, the “rate of catalysis in competitive cleavage assay (MALDI-TOF), relative to EVNLAAEFWHDR” value [2] was “statistically identical rates of catalysis for the upstream EEIS (SEQ ID NO: 52) and the downstream WHDR (SEQ ID NO: 29) sequence additions” and the “rate of catalysis in competitive cleavage assay (MALDI-TOF), relative to EVNLAAEFWHDR” value [3] was “a 60-fold decrease in the rate of catalysis for the upstream RWHH (SEQ ID NO: 53) sequence addition when compared to the downstream WHDR (SEQ ID NO: 29) sequence addition”.
